Experimental findings from patent publication US7745185B1, “Sulfotransferase 1A3 sequence variants” (Mayo Foundation for Medical Education and Research, priority 2003, dated 2010) are described below.

Positions count from the first letter of the chain named. Like-named read-outs stand apart in the source and are kept apart here.

In data set [1] the target is T1, SULT1A3 (Homo sapiens, UniProt P0DMM9, K234N).
T1 construct: made in house; host or cells: COS-1 cells transfected with pCR3.1 construct; high speed supernatant cytosol, unpurified
Put plainly: SULT1A3 enzyme activity assay (sulfate conjugation of dopamine with PAPS) in COS-1 cytosol preparations. The class given is biochemical. The following applies: recombinant allozyme expressed in COS-1 cells, dopamine 40 μM. From the text: COS-1 cell expression: Two different SULT1A3 expression constructs were made using the pCR3.1 expression vector. One of the constructs was designed to express the SULT1A3 Lys234Asn allozyme, while the remaining construct was designed to express a wild type SULT1A3 polypeptide. All SULT1A3 cDNA sequences containing SULT1A3 nucleotide sequence variants used to create the expression constructs were created by site directed mutagenesis using the method described by Ho et al. (1989) Gene 77:51-59. Each SULT1A3 cDNA was amplified by PCR and subcloned into the eukaryotic expression vector pCR3.1 (Promega, Madison, Wis.). […]
Enzyme Assays: β-galactosidase activity in each of the COS-1 HSS preparations was measured with the β-galactosidase Enzyme Assay System (Promega, Madison, Wis.). […] The protein concentration of each recombinant protein preparation was determined by the dye-binding method of Bradford with bovine serum albumin (BSA) as a standard.
SULT1A3 enzyme activity was measured with an assay that involves sulfate conjugation of a sulfate acceptor substrate, dopamine (40 μM), in the presence of the sulfate donor 3′-phosphoadenosine-5′-phosphosulfate (PAPS). […] Enzyme activity was expressed as nanomoles (nmoles) of sulfate conjugated product formed per hour of incubation. […]

Data set [2] has as its target T2, SULT1A3 (Homo sapiens, UniProt P0DMM9).
T2 construct: made in house; host or cells: COS-1 cells transfected with pCR3.1 construct; high speed supernatant cytosol, unpurified
Put plainly: Substrate kinetic studies, apparent Km for dopamine and PAPS. The class given is biochemical. Conditions: recombinant enzyme. How it is done: SULT1A3 enzyme activity was measured with an assay that involves sulfate conjugation of a sulfate acceptor substrate, dopamine (40 μM), in the presence of the sulfate donor 3′-phosphoadenosine-5′-phosphosulfate (PAPS). […] Cytosol from COS-1 cells transfected with empty pCR3.1 were used to correct for endogenous SULT activity. Because SULTs display profound substrate inhibition, a range of dopamine concentrations were tested to ensure that the assays were performed at a dopamine concentration that yielded maximal activity for the Lys234Asn allozyme. Enzyme activity was expressed as nanomoles (nmoles) of sulfate conjugated product formed per hour of incubation. Apparent Km values for PAPS were determined in the presence of dopamine, with PAPS concentrations that varied from 0.035 μM to 0.5 μM and dopamine concentrations that varied from 2.5 μM to 80 μM.
Data Analysis: Apparent Km values were calculated by using the method of Wilkinson with a computer program written by Cleland. Wilkinson, Biochem. J., 80:324-332 (1961); and Cleland, Nature, 198:463-365 (1963). Statistical comparisons of data were performed by ANOVA with the StatView program, version 4.5 (Abacus Concepts, Inc., Berkeley, Calif.). Linkage analysis was performed after all DNA samples had been genotyped at each of the 6 polymorphic sites observed. D′ values, a quantitative method for reporting linkage data that is independent of allele frequency (Hartl and Clark, Principles of Population Genetics, 3rd ed. (1997) Sinauer Associates, Inc., (Sunderland, Mass.), pp. 96-106; and Hedrick, Genetics of Populations, 2nd ed. (2000) Jones and Bartlett (Sudbury, Mass.), pp. 396-405), then were calculated. The genotype data also were used to assign inferred haplotypes using a program based on the E-M algorithm (Long et al. (1995) Am. J. Hum. Genet. 56:799-810; and Excoffier and Slatkin (1995) Mol. Biol. Evol. 12:921-927). Unambiguous haplotype assignment also was possible on the basis of genotype for samples that contained no more than one heterozygous polymorphism.
Alterations in amino acid sequence can alter enzyme substrate affinity and/or catalytic efficiency. Substrate kinetic studies were conducted to determine whether the Lys234Asn allozyme differed from the WT SULT1A3 protein in these aspects. A series of dopamine and PAPS concentrations were used to estimate apparent Km values for recombinant wild type SULT1A3 and for the Lys234Asn variant allozyme.

[3] abbreviates: PAPS 0.035 μM to 0.5 μM in the presence of dopamine, read-out: apparent Km for PAPS.
The mark [4] stands for this setting: dopamine 2.5 μM to 80 μM, read-out: apparent Km for dopamine.

T2 sequence (P0DMM9 whole entry): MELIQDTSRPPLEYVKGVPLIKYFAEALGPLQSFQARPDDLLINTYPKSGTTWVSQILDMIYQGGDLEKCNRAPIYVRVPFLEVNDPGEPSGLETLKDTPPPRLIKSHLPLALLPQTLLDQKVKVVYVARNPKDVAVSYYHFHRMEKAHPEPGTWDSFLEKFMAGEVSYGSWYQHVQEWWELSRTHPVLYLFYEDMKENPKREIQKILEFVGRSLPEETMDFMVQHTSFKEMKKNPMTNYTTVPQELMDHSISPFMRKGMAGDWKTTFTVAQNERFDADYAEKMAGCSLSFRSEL

B1: Lys234Asn: SULT1A3 polypeptide having an asparagine at amino acid residue 234 (allozyme encoded by thymine at nucleotide 702) (protein, listed as Homo sapiens)
chain: MELIQDTSRPPLEYVKGVPLIKYFAEALGPLQSFQARPDDLLINTYPKSGTTWVSQILDMIYQGGDLEKCNRAPIYVRVPFLEVNDPGEPSGLETLKDTPPPRLIKSHLPLALLPQTLLDQKVKVVYVARNPKDVAVSYYHFHRMEKAHPEPGTWDSFLEKFMAGEVSYGSWYQHVQEWWELSRTHPVLYLFYEDMKENPKREIQKILEFVGRSLPEETMDFMVQHTSFKEMKNNPMTNYTTVPQELMDHSISPFMRKGMAGDWKTTFTVAQNERFDADYAEKMAGCSLSFRSEL
The term Km denotes the substrate concentration at which the rate is half of its maximum. Take B1: in the data set with SULT1A3 [1], the “enzyme activity as percentage of WT activity” value came to 27%. Moreover, in the data set with SULT1A3 [1] (relative to WT SULT1A3), the “reduction in enzyme activity” value was found to be 73%. The Km with SULT1A3 [2] (setting [3]) is 0.107 µM; with SULT1A3 [2] (setting [4]), 9.8 µM.

B2: WT: reference SULT1A3 polypeptide (SEQ ID NO:4) that contains a lysine at amino acid residue 234 (protein, listed as Homo sapiens)
chain: B1 chain with N234K
B2: the Km was 0.112 µM in the data set with SULT1A3 [2] (setting [3]) and 10.4 µM in the data set with SULT1A3 [2] (setting [4]).
